For the experiment, the target named is Monoclonal anti-HIV-1 Env SF12 (IgG). The experiment in a line: ELISA. The conditions noted are these: highest antibody concentration of the titration (last point of the curve, between 1 and 10 µg/ml); parent: est. 3.3; read off a plot. A general note: In an ELISA, binding on a coated surface is turned into a signal by an enzyme label.

Turning to “YU2 gp140 foldon trimer (wild type) A281T; D368K”, the response came to 2.7 OD.

For the origin of these results see paper PMC6591006.
